Tests used:
iASPP Ank-SH3 = target: T1, iASPP Ank-SH3 (Homo sapiens, UniProt Q8WUF5); assay: Nickel affinity pulldown of iASPP Ank-SH3 by HLT-iASPP Pro; type: binding; conditions: Nickel-NTA beads with HLT-iASPP Pro 1 h at 4 °C, then iASPP Ank-SH3 2 h at 4 °C; SDS-PAGE coomassie staining
T1 construct: (2) iASPP Ank-SH3 603-828; HLT tag (His tag + lipoyl domain + TEV site) (N, cleaved yes); made in house; host or cells: E. coli HMS 174 (Novagen)
T1 sequence (Q8WUF5 603-828): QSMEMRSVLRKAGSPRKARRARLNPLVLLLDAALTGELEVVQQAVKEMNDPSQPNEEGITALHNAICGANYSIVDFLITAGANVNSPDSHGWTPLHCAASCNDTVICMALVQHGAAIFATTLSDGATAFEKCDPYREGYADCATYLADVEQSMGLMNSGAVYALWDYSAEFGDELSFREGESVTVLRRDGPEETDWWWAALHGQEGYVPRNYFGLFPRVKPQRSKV
Description: After purifying the recombinant HLT-iASPP Pro and iASPP Ank-SH3 we tested whether the recombinant proteins interact using Nickel affinity pulldown assay. Nickel-NTA beads were incubated for one hour with HLT-iASPP Pro or with buffer or HLT alone. Then the beads were incubated with iASPP Ank-SH3 for two hours.
Figure 4 HLT-iASPP Pro interacts with iASPP Ank-SH3 in vitro. Nickel affinity pulldown of iASPP Ank-SH3 by HLT-iASPP Pro, SDS PAGE gel coomassie staining results. Nickel-NTA beads were incubated with HLT-iASPP Pro or with buffer or HLT fusion domain alone, for 1 h at 4 °C. The samples were centrifuged and then incubated with iASPP Ank-SH3 for 2 h at 4 °C. The samples were centrifuged again and the beads were washed 3 times. The beads were eluted by boiling them in SDS solution. Ank-SH3 eluted from the beads only in the presence of HLT-iASPP Pro.
30 μl Nickel-NTA beads (Qiagen) were incubated with: (1) 500 μl buffer C (50 mM Phosphate buffer pH = 7.0, 300 mM NaCl, 10% glycerol, 0.02% NaN3 and 0.001% Tween 20); (2) 250 μl 31 μM HLT; (3) 2 ml 1.7 μM HLT-iASPP Pro (in buffer C) for 1 hour with gentle mixing at 4 °C and in the presence of 40 mM imidazole. The samples were centrifuged (2 min 3500 RPM), and washed with buffer C (5 min, 4 °C, gentle mixing). […] Samples were analyzed on a 10% SDS-PAGE gel.

HLT-iASPP Pro = target: T2, HLT-iASPP Pro (human, UniProt Q8WUF5 1-602); assay: pull-down; Nickel-NTA beads loaded with HLT-iASPP Pro (1.7 uM), HLT (31 uM) or buffer, 1 h, 4 °C, 40 mM imidazole; then iASPP Ank-SH3 (80 ul of 80 uM, diluted in 1 ml 25 mM phosphate pH 7.0, 10% glycerol, 25 mM imidazole, 100 mM NaCl), 2 h, 4 °C; three washes; eluted by boiling in SDS; Coomassie-stained SDS-PAGE; conditions: both partners purified
T2 construct: iASPP (human), proline rich (Pro) domain, residues 1-602 of the 828-residue protein, Swiss-Prot Q8WUF5; Cloned EcoRI/NotI into pHis parallel 2HLT; calculated Mw with tag 75.9 kDa; also called iASPP Pro 1-602; iASPP 1-602; source: E. coli Rosetta2, purified (Nickel Sepharose, size exclusion chromatography); not shown: HLT (His tag, lipoyl domain, TEV protease cleavage site), N-terminal, kept
T2 sequence (looked up): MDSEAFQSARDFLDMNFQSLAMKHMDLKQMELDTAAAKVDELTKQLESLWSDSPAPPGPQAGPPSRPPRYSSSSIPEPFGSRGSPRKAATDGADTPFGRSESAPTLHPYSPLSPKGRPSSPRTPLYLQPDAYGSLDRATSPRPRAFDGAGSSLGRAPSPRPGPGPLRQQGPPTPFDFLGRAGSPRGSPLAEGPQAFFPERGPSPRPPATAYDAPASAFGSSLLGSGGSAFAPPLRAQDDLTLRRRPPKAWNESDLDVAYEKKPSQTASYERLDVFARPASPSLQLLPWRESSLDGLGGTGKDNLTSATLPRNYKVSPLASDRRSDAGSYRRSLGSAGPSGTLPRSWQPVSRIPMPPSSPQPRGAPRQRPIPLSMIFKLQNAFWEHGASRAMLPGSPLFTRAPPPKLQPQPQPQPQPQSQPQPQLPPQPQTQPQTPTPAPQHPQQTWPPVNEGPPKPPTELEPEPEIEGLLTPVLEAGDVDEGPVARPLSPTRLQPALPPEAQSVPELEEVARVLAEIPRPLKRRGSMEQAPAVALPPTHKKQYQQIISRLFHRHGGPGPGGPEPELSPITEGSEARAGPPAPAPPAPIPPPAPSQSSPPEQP

B1: HLT-iASPP Pro: recombinant iASPP Pro 1-602 with HLT (His-lipoyl domain-TEV) tag (protein)
chain: MDSEAFQSARDFLDMNFQSLAMKHMDLKQMELDTAAAKVDELTKQLESLWSDSPAPPGPQAGPPSRPPRYSSSSIPEPFGSRGSPRKAATDGADTPFGRSESAPTLHPYSPLSPKGRPSSPRTPLYLQPDAYGSLDRATSPRPRAFDGAGSSLGRAPSPRPGPGPLRQQGPPTPFDFLGRAGSPRGSPLAEGPQAFFPERGPSPRPPATAYDAPASAFGSSLLGSGGSAFAPPLRAQDDLTLRRRPPKAWNESDLDVAYEKKPSQTASYERLDVFARPASPSLQLLPWRESSLDGLGGTGKDNLTSATLPRNYKVSPLASDRRSDAGSYRRSLGSAGPSGTLPRSWQPVSRIPMPPSSPQPRGAPRQRPIPLSMIFKLQNAFWEHGASRAMLPGSPLFTRAPPPKLQPQPQPQPQPQSQPQPQLPPQPQTQPQTPTPAPQHPQQTWPPVNEGPPKPPTELEPEPEIEGLLTPVLEAGDVDEGPVARPLSPTRLQPALPPEAQSVPELEEVARVLAEIPRPLKRRGSMEQAPAVALPPTHKKQYQQIISRLFHRHGGPGPGGPEPELSPITEGSEARAGPPAPAPPAPIPPPAPSQSSPPEQP
modifications: left off: HLT (His tag, lipoyl domain, TEV protease cleavage site), N-terminal, kept
notes: recombinant iASPP Pro 1-602 with HLT (His-lipoyl domain-TEV) tag
pulldown of iASPP Ank-SH3 (iASPP Ank-SH3): retrieved

B2: iASPP Ank-SH3 (domain or fragment, human, UniProt Q8WUF5 603-828, looked up)
chain: QSMEMRSVLRKAGSPRKARRARLNPLVLLLDAALTGELEVVQQAVKEMNDPSQPNEEGITALHNAICGANYSIVDFLITAGANVNSPDSHGWTPLHCAASCNDTVICMALVQHGAAIFATTLSDGATAFEKCDPYREGYADCATYLADVEQSMGLMNSGAVYALWDYSAEFGDELSFREGESVTVLRRDGPEETDWWWAALHGQEGYVPRNYFGLFPRVKPQRSKV
notes: iASPP (human), four ankyrin repeats and SH3 domain, residues 603-828, Swiss-Prot Q8WUF5; also called iASPP Ank-SH3 603-828; cleaved iASPP Ank-SH3; source: E. coli HMS 174, purified (Nickel Sepharose, TEV cleavage, second Nickel column, size exclusion chromatography); not shown: HLT (His tag, lipoyl domain, TEV protease cleavage site), N-terminal, cleaved
binding result (HLT-iASPP Pro): binds
